From doi:10.1101/2025.04.15.648992
Each block holds one substance with its values, some of them ahead of it.

Tests used:
Test in all cases: SEC
[1] = molecular target: CdaA_(88-273) D172A (Leptospira interrogans str. Fiocruz L1-130)
[2] = molecular target: CdaA_(88-273) R203A (Leptospira interrogans str. Fiocruz L1-130)
[3] = molecular target: CdaA_(88-273) S222A (Leptospira interrogans str. Fiocruz L1-130)

- stoichiometry N [1]: 2
Substance: CdaA_(88-273) D172A (domain or fragment)

- stoichiometry N [2]: 2
Substance: CdaA_(88-273) R203A (domain or fragment)

- stoichiometry N [3]: 2
Substance: CdaA_(88-273) S222A (domain or fragment)
